Target: authentic wild-type SARS-CoV 3C-like protease (3CLpro) (SARS-CoV) (UniProt P0C6X7)
Assay: ITC

Substance: authentic wild-type SARS-CoV 3C-like protease (3CLpro) (from UniProt P0C6X7 3241-3546) (enzyme)
- Kd: 21.4 µM

— article PMC3044768
